Assay results: PMC5028891 (Scientific Reports, 2016)

Target: T1, human claudin-4 (full-length), wild type (human, UniProt O14493 1-209)
T1 construct: also called claudin-4 wild type; WT
T1 sequence (looked up): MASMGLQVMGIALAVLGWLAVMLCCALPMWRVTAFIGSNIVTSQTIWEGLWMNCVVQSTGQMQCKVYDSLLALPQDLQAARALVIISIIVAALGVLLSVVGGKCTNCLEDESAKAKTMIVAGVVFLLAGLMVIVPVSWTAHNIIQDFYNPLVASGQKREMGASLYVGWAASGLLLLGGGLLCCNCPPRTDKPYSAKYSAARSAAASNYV
Experiment: pull-down
Settings: both partners purified

B1: glutathione-S-transferase-tagged C-CPE (residues 185′–319′), wild type (domain or fragment)
chain: RCVLTVPSTDIEKEILDLAAATERLNLTDALNSNPAGNLYDWRSSNSYPWTQKLNLHLTITATGQKYRILASKIVDFNIYSNNFNNLVKLEQSLGDGVKDHYVDISLDAGQYVLVMKANSSYSGNYPYSILFQKF
B1: binds.
